From US20230203482A1, “Methods of Rescuing Stop Codons via Genetic Reassignment with ACE-tRNA” (THE WISTAR INSTITUTE OF ANATOMY AND BIOLOGY, priority 2017, published 2023)
Positions count from the first letter of the chain named.

B1: TS-38: t-stem variant of Trpchr17.trna39, SEQ ID NO: 3 (nucleic acid)
chain: GGCCTCGTGGCGCAACGGTAGCGCGTCTGACTTCAGATCAGAAGGTTCCGGGTTCAAATCCCGGCGGGGTCA
modifications: expressed or natural sequence
B2: ArgTGAchr9.trna6/withintron: ACE-tRNA Arg, TGA suppressor, SEQ ID NO: 9 (nucleic acid)
chain: CGTCGGCTCTGTGGCGCAATGGATAGCGCATTGGACTTCAAGCTGAGCCTAGTGTGGTCATTCAAAGGTTGTGGGTTCGAGTCCCACCAGAGTCG
modifications: expressed or natural sequence
B3: ArgTGAchr17.trna3/withinron: ACE-tRNA Arg, TGA suppressor, SEQ ID NO: 12 (nucleic acid)
chain: CGTCGGCTCTGTGGCGCAATGGATAGCGCATTGGACTTCAAGTGACGAATAGAGCAATTCAAAGGTTGTGGGTTCGAATCCCACCAGAGTCG
modifications: expressed or natural sequence
B4: ArgTGAchr1.trna10/nointron: ACE-tRNA Arg, TGA suppressor, SEQ ID NO: 6 (nucleic acid)
chain: CGTCGGCTCCGTGGCGCAATGGATAGCGCATTGGACTTCAAATTCAAAGGTTCCGGGTTCGAGTCCCGGCGGAGTCG
modifications: expressed or natural sequence
B5: ArgTGAchr17.trna3/nointron: ACE-tRNA Arg, TGA suppressor, SEQ ID NO: 8 (nucleic acid)
chain: B4 chain with C10T, C53G, C54T, G63A, G68A, G69C, G71A
modifications: expressed or natural sequence
B6: ArgTGAchr1.trna10/withintron: ACE-tRNA Arg, TGA suppressor, SEQ ID NO: 11 (nucleic acid)
chain: CGTCGGCTCCGTGGCGCAATGGATAGCGCATTGGACTTCAAGAGGCTGAAGGCATTCAAAGGTTCCGGGTTCGAGTCCCGGCGGAGTCG
modifications: expressed or natural sequence
B7: ArgTGAchr16.trna3: ACE-tRNA Arg, TGA suppressor, SEQ ID NO: 10 (nucleic acid)
chain: CGTCGCCCCGGTGGCCTAATGGATAAGGCATTGGCCTTCAAAGCCAGGGATTGTGGGTTCGAGTCCCACCCGGGGTA
modifications: expressed or natural sequence
B8: TrpTGAchr17.trna10: ACE-tRNA Trp, TGA suppressor, SEQ ID NO: 49 (nucleic acid)
chain: B1 chain with G2A, C16T, C48G, G51T, A58G, C61A, G64T
modifications: expressed or natural sequence
B9: GlyTGAchr17.trna9: ACE-tRNA Gly, TGA suppressor, SEQ ID NO: 55 (nucleic acid)
chain: GCGTTGGTGGTATAGTGGTAAGCATAGCTGCCTTCAAAGCAGTTGACCCGGGTTCGATTCCCGGCCAACGCA
modifications: expressed or natural sequence
B10: GlyTGAchr1.trna107: ACE-tRNA Gly, TGA suppressor, SEQ ID NO: 54 (nucleic acid)
chain: B9 chain with A20G
modifications: expressed or natural sequence
B11: GlnTAGchr6.trna63: ACE-tRNA Gln, TAG suppressor, SEQ ID NO: 18 (nucleic acid)
chain: CGTCGGTCCCATGGTGTAATGGTTAGCACTCTGGACTCTAAATCCAGCAATCCGAGTTCGAATCTCGGTGGGACCT
modifications: expressed or natural sequence
B12: GlnTAGchr6.trna132: ACE-tRNA Gln, TAG suppressor, SEQ ID NO: 20 (nucleic acid)
chain: B11 chain with T7C, T24C, A49G, G60A, T76C
modifications: expressed or natural sequence
B13: GlnTAGchr17.trna14: ACE-tRNA Gln, TAG suppressor, SEQ ID NO: 19 (nucleic acid)
chain: B11 chain with A49G, G60A
modifications: expressed or natural sequence
B14: GlnTAGchr6.trna175: ACE-tRNA Gln, TAG suppressor, SEQ ID NO: 17 (nucleic acid)
chain: B11 chain with T7C, A49G, G60A
modifications: expressed or natural sequence
B15: GlnTAGchr1.trna17: ACE-tRNA Gln, TAG suppressor, SEQ ID NO: 16 (nucleic acid)
chain: B11 chain with C8T, T24G, A49G, A62G, G72A
modifications: expressed or natural sequence
B16: TrpTAGchr12.trna6: ACE-tRNA Trp, TAG suppressor, SEQ ID NO: 36 (nucleic acid)
chain: CGTCGACCTCGTGGCGCAACGGTAGCGCGTCTGACTCTAGATCAGAAGGCTGCGTGTTCGAATCACGTCGGGGTCA
modifications: expressed or natural sequence
B17: TrpTAGchr17.trna10: ACE-tRNA Trp, TAG suppressor, SEQ ID NO: 33 (nucleic acid)
chain: B16 chain with C20T, C50T, G60A, A62G
modifications: expressed or natural sequence

These molecules were tested on NLuc-UGA PTC (assay: NanoLuc nonsense reporter screen (all-in-one HTC plasmid), TGA/UGA PTC, HEK293 cells). Settings: HEK cells, luciferase 24 hours post-transfection.
Format: cell-based, human
Excerpt: Several different nonsense mutations cause CF, thus underlying roughly 10% of all CF disease. FIG. 7. These cases are concentrated into […] specific genetic lesions: E60X, R75X, G542X, R553X, Q890X, Y1092X, R1158X, R1162X and W1282X. A screen was developed to screen existing human tRNA sequences for modification and tolerance to anti-codon editing. To this end, roughly 144 ACE-tRNAs were candidates to test for those that could be used to promote the repair of the disease causative nonsense codon and the expression of the full-length protein. Specifically, using the scheme described in FIG. 11, tRNA libraries were generated to identify novel tRNA sequences that encode for ACE tRNA with the ability to repair the top CF causative nonsense mutations. Specifically, 10 ng of annealed oligos encoding the ACE-tRNAs were combined with 50 ng of NanoLuc reporter plasmid, 1 μl 10×CutSmart Buffer (NEB), 1 μl T4 ligase (NEB), 10 mM ATP and 1 μl BbsI (NEB) and cycled in a thermocycler as described in FIG. 11. 1 μl of the reaction was transformed into competent E. coli and the transformants were plated on ampicillin agar plates. One transformant was picked per plate was picked, grown in 1 ml of LB under ampicillin selection, miniprepped and sequence verified.
Screening studies were first performed to identify the best ACE-tRNA Candidates from tryptophan and glycine. 125 ng of sequence verified miniprep cDNA of NanoLuc reporter plasmid with ACE-tRNA was transfected into HEK cells using calcium phosphate. HEK cells were plated in 96 well plates at 4×10^4 the day prior. 24 hours after transfection the media was replaced with 20 μl of PBS and 15 μl of NanoGlo reagent (Promega) was added. Plates were read on a SpectraMax i3 (Molecular Devices). Data are of replicates of 3 or greater. FIG. 8.
FIG. 10. An additional modification of the tRNA was made to further enable their function for the purpose of suppression of nonsense codons and the promotion of protein expression. […] To this end, single and double mutations were directly engineered into the t-stem loop of tRNA Trpchr17.trna39—an ACE-tRNA identified with activity for the rescue of tryptophan TGA nonsense codons. Thirty-eight tRNA t-stem variants were thus generated and screened in HEK cells transiently transfected with the nonsense rescue reporter construct shown in FIG. 4. […] This is a generalizable modification, that is, new tRNA sequences identified, by example 1 and 2, can be made better (for their ability to rescue nonsense codons) through further rationale modifications. Such approaches aid in the therapeutic utility of ACE-tRNA directed to tissue types with low abundance target RNA or where tRNA delivery may be limiting.
In order to enable the identification of the nucleotide composition and functional ability to suppress nonsense codons by new types of tRNA, an All-In-One Plasmid With A One Pot Cloning Reaction was invented for High Throughput Cloning FIG. 11. This approach enables the facile investigation of ACE-tRNA activity via luciferase activity in a standard 96 well format. Briefly, synthetic nucleotide sequences encoding for tRNA are ligated into the NanoLuc Reporter plasmid, with an example of the TGA nonsense reporter plasmid variant shown in FIG. 11. […] and TAG (amber) stop codon rescue vectors have been successfully designed and implemented in FIGS. 16-19. The benefits are the approach is that DNA oligos encoding for tRNA libraries can be ligated in the NanoLuc reporter plasmid with the presence of the restriction enzyme and ligase with the reaction pushed to nearly 100% incorporation of tRNA insert (FIG. 11)-thus the ‘one-pot’ designation. The reaction is transformed into E. coli, with the resultant cDNA purified by standard methods. […]
With B1 the “enhancement of the suppression ability of Trpchr17.trna39 by t-stem mutation” value was “roughly 250%”.

Same assay, conditions: Table 1, Arg TGA
For “ArgTGAchr7.trna5: ACE-tRNA Arg, TGA suppressor, SEQ ID NO: 7”, the Ranking was “#4”. “ArgTGAchr9.trna6/nointron: ACE-tRNA Arg, TGA suppressor, SEQ ID NO: 4” was tested, and the Ranking was “#1”. “ArgTGAchr17.trna19: ACE-tRNA Arg, TGA suppressor, SEQ ID NO: 5” was tested, and the Ranking was “#2”. With B2 the Ranking was “#5”. B3 was tested, and the Ranking was “#7”. For B4, the Ranking was “#3”. B5 was tested, and the Ranking was “#4”. For B6, the Ranking was “#6”. B7 was tested, and the Ranking was “#5”.

Same assay, conditions: Table 7, Trp TGA
With “TrpTGAchr6.trna171: ACE-tRNA Trp, TGA suppressor, SEQ ID NO: 50” the Ranking was “#3”. B8 was tested, and the Ranking was “#2”.

Same assay, conditions: Table 8, Gly TGA
In the case of B9, the Ranking is reported as “#3”. B10 was tested, and the Ranking was “#2”.

Each molecule was assayed on NLuc-UAG PTC (assay: NanoLuc nonsense reporter screen (all-in-one HTC plasmid), TAG/UAG PTC, HEK293 cells). Settings: Table 2, Gln TAG.
Format: cell-based, human
Excerpt: In order to enable the identification of the nucleotide composition and functional ability to suppress nonsense codons by new types of tRNA, an All-In-One Plasmid With A One Pot Cloning Reaction was invented for High Throughput Cloning FIG. 11. This approach enables the facile investigation of ACE-tRNA activity via luciferase activity in a standard 96 well format. Briefly, synthetic nucleotide sequences encoding for tRNA are ligated into the NanoLuc Reporter plasmid, with an example of the TGA nonsense reporter plasmid variant shown in FIG. 11. […] and TAG (amber) stop codon rescue vectors have been successfully designed and implemented in FIGS. 16-19. The benefits are the approach is that DNA oligos encoding for tRNA libraries can be ligated in the NanoLuc reporter plasmid with the presence of the restriction enzyme and ligase with the reaction pushed to nearly 100% incorporation of tRNA insert (FIG. 11)-thus the ‘one-pot’ designation. The reaction is transformed into E. coli, with the resultant cDNA purified by standard methods. Another benefit of the invented method is that the tRNA and reporter gen are within the single expression cassette, therefore lowering biological variability and improving data quality obtaining in resulting screens of tRNA suppression activity. The purified cDNA plasmids are then screened in high-throughput 96 well format for their ability to repair nonsense codons by inferred luciferase activity. The approach is suitable for the high-throughput screening of hundreds to thousands of tRNA for novel therapeutic activity.
The rationale of this study is rooted in the observation that there are multiple tRNA genes with unique sequences (isodecoders) for a given cognate amino acid (isoacceptors), leading to >400 tRNAs annotated in the human genome (http:lowelab.ucsc.edu/GtRNAdb/)^28, 29. First, tRNA genes were examined to identify individual ACE-tRNAs that retain suppression efficacy of PTCs in mammalian cells. In order to maximize sequence coverage, an all-in-one cDNA plasmid was generated that supports both high-throughput cloning (HTC) of ACE-tRNAs and quantitative measurement of PTC suppression using luminescence following delivery to mammalian cells, FIG. 21B. ACE-tRNA sequences were cloned as DNA oligos into the HTC plasmid using Golden Gate cloning^30 paired with ccdB negative selection^31. This strategy produced ˜100% cloning efficiency. ACE-tRNA suppression efficiency was read out from a split NanoLuc luciferase (NLuc) NanoBiT platform whereby the PTC of interest (UGA, UAA, or UAG) was introduced in-frame at the junction between the large bit and small bit domains, FIG. 21B^32, using a 96-well format and normalized to background obtained in NLuc-PTC expressing cells. Twenty-one glycine ACE-tRNAs were first evaluated for suppression of the UGA PTC, FIG. 22, top left, column 1 (violet). […] Given the high sequence conservation among the Gly-tRNAs screened for anti-codon tolerance (FIG. 27), it would be difficult to predict de novo which tRNA would be most amenable to anticodon-editing.
The parent plasmid used was pcDNA3.1(+). The cDNA encoding pNLuc was Gibson Assembled (New England Biolabs, USA) into restriction sites HindIII and XhoI. A glycine (codon gga), tryptophan ([…]), amber (tag), opal (tga) and ochre (taa), were added to amino acid position 160 during cDNA per. The pcDNA3.1(+) polyA sequence was replaced for one with no BbsI restriction sites using per based Gibson Assembly. The high throughput ACE-tRNA Golden Gate cloning site was generated by first inserting the 5′ leader sequence of the human tRNA^Tyr gene (bold) with a T7 promoter sequence upstream (italics)
tRNA gene sequences were obtained from the tRNA database tRNAscan-SE (http://gtrnadb.ucsc.edu/index.html; PMID: 26673694). […]
For B11, the Ranking was “#3”. B12 was tested, and the Ranking was “#5”. For B13, the Ranking was “#4”. B14 was tested, and the Ranking was “#2”. With B15 the Ranking was “#1”.

Same assay, conditions: Table 4, Trp TAG
With “TrpTAGchr6.trna171: ACE-tRNA Trp, TAG suppressor, SEQ ID NO: 34” the Ranking was “#2”. For “TrpTAGchr17.trna39: ACE-tRNA Trp, TAG suppressor, SEQ ID NO: 35”, the Ranking was “#3”. With B16 the Ranking was “#4”. For B17, the Ranking was “#1”.
